This data set deals with MS2 coat protein. In words: apparent KD of MS2 coat protein; designed switch direction (-1 OFF switch, 1 ON switch): 1; higher = weaker reporter binding. The essentials: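 RNA switches sharing common flanks were transcribed by stalled E. coli RNA polymerase on Illumina chips. A doubling series of SNAP-549-labelled MS2 coat protein, from 0.7 or 1.5 nM to 3 µM, was applied in Tris-HCl pH 7.5 buffer with KCl, MgCl2, BSA, DTT, tRNA and Tween-20. Each step lasted 0.8–1.5 h at the bottom of the series and 10–20 min at the top. Normalised cluster fluorescence was curve-fitted, giving apparent KD as the per-design median over clusters.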

Setting [1] is: Eterna round: R95, input ligand: FMN 200 uM.
The mark [2] stands for this setting: Eterna round: R95, input ligand: microRNA oligo, concentration not stated.
Where [3] appears, read: Eterna round: R95, input ligand: none.
The mark [4] stands for this setting: input ligand: microRNA oligo, concentration not stated.

On to “AGUCCAGCGAAAGCUGGACAAAGACAUGUACAUGAGGAUCACCCAUGUCAUGUACAAGUUUUUUGCUCGUCUUAUAA (puzzle: Sensor for hsa-mir-208a)”, for which the “apparent KD of MS2 coat protein” value reads like this: under setting [1], 34.4 nM; under setting [2], 12.7 nM; under setting [3], 35.8 nM.

For the sequence “AGUCCUGAAAAGAAAAUAAUAAGUGAUGUACAUGAGGAUCACCCAUGUCAUGUACAAGUUCUAUGCUCGUCAUAUAA [Sensorship 24 - Jieux - Sensor for hsa-mir-208a] (puzzle: Sensor for hsa-mir-208a)”, the “apparent KD of MS2 coat protein” value was determined as 106 nM under setting [1], 32.2 nM under setting [2] and 98.1 nM under setting [3].

Turning to “AUAAAACAUGAGGAUCACCCAUGUCAACAAAGUCGAGGAUAUGGGCAAAUAAAAUAAGAACCAGAAGGCGAUUAAU [salish99_ss1_r3_035] (puzzle: Same State 1)”, the “apparent KD of MS2 coat protein” value reads like this: under setting [1], 23.4 nM; under setting [2], 97.3 nM; under setting [3], 99 nM.

Regarding “AUAAGGCAAGCUUUUUUCUCGUAGUGUAAACAUGAGGAUCACCCAUGUGCCCACCCUGGACCUUUGGAUCGCAGAAA [Geatxe] (puzzle: Sensor for hsa-mir-208a)”, the “apparent KD of MS2 coat protein” value under setting [1] is 30.5 nM, the “apparent KD of MS2 coat protein” value under setting [2] was 25.9 nM and the “apparent KD of MS2 coat protein” value under setting [3] was 25.9 nM.

“AUAAGUUCGAUGCUCGUCUCUCCGUACAAACAUGAGGAUCACCCAUGUGAUUAGGCAGUAGCCCAAUCAGUAUGGCC [Ariusveri] (puzzle: Sensor for hsa-mir-208a)”: the “apparent KD of MS2 coat protein” value reads like this: under setting [1], 38.7 nM; under setting [2], 21.8 nM; under setting [3], 43.4 nM.

Regarding “AUAAGUUUGAUGCUCGUCUCUCCGUACAGACAUGAGGAUCACCCAUGUAGUCGGGAAGUAGCCCGGCCUGUAUGGCC [Magequ] (puzzle: Sensor for hsa-mir-208a)”, the “apparent KD of MS2 coat protein” value is 15.2 nM under setting [1], 15.7 nM under setting [2] and 14.4 nM under setting [3].

Regarding “AUAAGUUUGAUGCUCGUCUCUCCGUACGGACAUGAGGAUCACCCAUGUAGUCGGGAAGUAGCCCGGCCAGUAUGGCC [Soveerre] (puzzle: Sensor for hsa-mir-208a)”, the “apparent KD of MS2 coat protein” value under setting [1] amounted to 32.6 nM, the “apparent KD of MS2 coat protein” value under setting [2] was 22.3 nM and the “apparent KD of MS2 coat protein” value under setting [3] came out at 22.9 nM.

Consider “AUACAUGAGGAUCACCCAUGUAAUUAAUUAACUUGUAAGAUCAAGGAUAUCAGCUCGAUUAGAGCUGAGAAGGUGAUCACAUGU [SSNG3/21-C2] (Eterna round: R96, puzzle: Same State NG 3)”, for which the “apparent KD of MS2 coat protein” value under setting [4] was found to be 116 nM.

In the case of “AUAGUUAGCAAAGGAUAUGGGAAAGGAAGUGUACCAGAAGGUUGGCUACUGGGCUUACAUGAGGAUCACCCAUGUCCCGGUAGC [PowerStrip SSNG 1.30] (Eterna round: R96, puzzle: Same State NG 1)”, the “apparent KD of MS2 coat protein” value reads like this: (input ligand: FMN 200 uM) 14.6 nM; under setting [4], 14.2 nM; (input ligand: none) 15.4 nM.

“AUAUGAGAAGCAGGAUAUGUGAAAAAAAAACAUACAGAAGGGUUUAUGGAAAAACAUGAGGAUCACCCAUGUUCUUUGUGAUGA [AK SSNG1-V2-1] (Eterna round: R96, puzzle: Same State NG 1)”: under setting [4], the “apparent KD of MS2 coat protein” value was determined as 29.6 nM.

Take “AUCAAAACAAGUUGCAGUGUUCGUCUUUCACAUGAGGAUCACCCAUGUAAUAGCCCAGUGGAAGCGCUCGGGCUACC [Esgevexe] (puzzle: Sensor for hsa-mir-208a)”: the “apparent KD of MS2 coat protein” value by setting is: under setting [1], 38.7 nM; under setting [2], 25.6 nM; under setting [3], 47.9 nM.

On to “AUCCUACAUGAGGAUCACCCAUGUGACGCCUCAAUAGGAUAUCGGGCCCACAGUCGGGAACGAGAAGGAUUGAAGC [Beatonce] (puzzle: Same State 1)”, for which the “apparent KD of MS2 coat protein” value runs as follows: under setting [1], 70 nM; under setting [2], 170 nM; under setting [3], 669 nM.

Turning to “AUGAAGAAUUAAGGAUAUUGAUUACAUAUGUUUAACAUGAGGAUCACCCAUGUGGGUUGCGGUAUCGAGAAGGUAAAUUACAAG [Mat - same State NG 2 - JL mod - D87] (Eterna round: R96, puzzle: Same State NG 2)”, the “apparent KD of MS2 coat protein” value runs as follows: (input ligand: FMN 200 uM) 177 nM; under setting [4], 132 nM; (input ligand: none) 187 nM.

Consider “AUGCCCGUAGCACAGGAUAUCCGAGGCAAAACAUGAGGAUCACCCAUGUCAAACGAAAAUCCGAAGGAGAAGGGUGAACGGGCUC [Xeisquorat] (puzzle: Same State 2)”, for which the “apparent KD of MS2 coat protein” value was 12 nM under setting [1], 11.8 nM under setting [2] and 9.59 nM under setting [3].

As to “AUGUGUUUGCGAGGAUAUCGUUUGUUGAAGUUACGAGAAGGCGCUCACUUUACAUGAGGAUCACCCAUGUCUUUGAUGCAUGAU [JR_SSNG1_Sub073] (Eterna round: R96, puzzle: Same State NG 1)”, the “apparent KD of MS2 coat protein” value by setting is: (input ligand: FMN 200 uM) 46.6 nM; under setting [4], 40.2 nM; (input ligand: none) 44.1 nM.

As to “AUUAAACAUGAGGAUCACCCAUGUCAACAAAGUCGAGGAUAUGGGCAAAUAUAAUAAGAACCAGAAGGCGAAUAAU [salish99_ss1_r3_059] (puzzle: Same State 1)”, the “apparent KD of MS2 coat protein” value by setting is: under setting [1], 28 nM; under setting [2], 190 nM; under setting [3], 227 nM.

For the sequence “AUUAAACAUGAGGAUCACCCAUGUCAACAAAGUCGAGGAUAUGGGCAUAUUAUCUUAUUUCCAGAAGGCGAAUAAU [salish99_ss1_r3_088] (puzzle: Same State 1)”, under setting [2], the “apparent KD of MS2 coat protein” value is 131 nM.

For “AUUACUAACAUAGGAUAUCAUGCGAAAAUUGCGUGAGAAGGGUGGACGCUGUCAUUCACGGAGGACAUGAGGAUCACCCAUGUC [SameState NG1 #72] (Eterna round: R96, puzzle: Same State NG 1)”, the “apparent KD of MS2 coat protein” value was found to be 264 nM (input ligand: FMN 200 uM), 103 nM under setting [4] and 143 nM (input ligand: none).

Regarding “AUUAUCAAUGCAGGAUAUGAUUAACAUGAGGAUCACCCAUGUGGUGUUGUGAGUAAGGAGAGUGAUCAGAAGGGCAUUUUUUUU [JMF's solution 26] (Eterna round: R96, puzzle: Same State NG 2)”, the “apparent KD of MS2 coat protein” value was found to be 575 nM (input ligand: FMN 200 uM), 261 nM under setting [4] and 475 nM (input ligand: none).

Take “AUUAUUAAUGCAGGAUAUGAUUAACAUGAGGAUCACCCAUGUGGUGUUGUGAGUAAGGAGAGUGAUCAGAAGGGCAUCUUUUUU [JMF's solution 10] (Eterna round: R96, puzzle: Same State NG 2)”: the “apparent KD of MS2 coat protein” value is, setting by setting: (input ligand: FMN 200 uM) 470 nM; under setting [4], 312 nM; (input ligand: none) 359 nM.

For “AUUAUUAAUGCAGGAUAUGAUUAACAUGAGGAUCACCCAUGUGGUGUUGUGAGUAAGGAGAGUGAUCAGAAGGGCAUUUUUUUA [JMF's solution 18] (Eterna round: R96, puzzle: Same State NG 2)”, the “apparent KD of MS2 coat protein” value reads like this: (input ligand: FMN 200 uM) 653 nM; under setting [4], 440 nM; (input ligand: none) 479 nM.

For the sequence “AUUAUUUAUGCAGGAUAUGAUUAACAUGAGGAUCACCCAUGUGGUGUUGUGAGUAAGGAGAGUGAUCAGAAGGGCAUUAUUUUU [JMF's solution 45] (Eterna round: R96, puzzle: Same State NG 2)”, the “apparent KD of MS2 coat protein” value was 634 nM (input ligand: FMN 200 uM), 214 nM under setting [4] and 355 nM (input ligand: none).

Source of the values: the supplement of paper PMC9170038.
